Results taken from paper PMC6506263 (The Biochemical journal, 2019).
Residue numbers refer to the chain shown, from its start. Names may count otherwise.

What was measured:
[1] = biological target: TorS sensor domain (Escherichia coli) (UniProt P39453); conditions: cited from earlier work
[2] = biological target: the molecule itself; experiment: cross-linking
[3] = biological target: the molecule itself; experiment: native gel or EMSA

Q: For “TorS sensor domain (from UniProt P39453)”, which Kd [1] is on record?
A: The Kd was 49.6 µM.

B1: N-terminal Strep-tagged CusS(39–187) wild-type, periplasmic sensor domain of the histidine kinase CusS (domain or fragment, E. coli)
chain: VKVHFAEQDINDLKEISATLERVLNHPDETQARRLMTLEDIVSGYSNVLISLADSQGKTVYHSPGAPDIREFTRDAIPDKDAQGGEVYLLSGPTMMMPGHGHGHMEHSNWRMINLPVGPLVDGKPIYTLYIALSIDFHLHYINDLMNKLEGSA
Q: Does B1 bind [2]?
A: Result: binds

B2: N-terminal Strep-tagged CusS(39–187)-IIA (M133I/M135I/H145A), internal metal binding site eliminated (domain or fragment, E. coli)
chain: B1 chain with M95I, M97I, H107A
Q: Does B2 bind [2]?
A: Result: binds

B3: CusScp-long, cytoplasmic domain of CusS with C-terminal Strep-Myc-Strep-FLAG-HA-Strep tags, wild-type (domain or fragment, E. coli, UniProt P77485 208-480, looked up)
chain: KGHAPIRSVSRQIQNITSKDLDVRLDPQTVPIELEQLVLSFNHMIERIEDVFTRQSNFSADIAHEIRTPITNLITQTEIALSQSRSQKELEDVLYSNLEELTRMAKMVSDMLFLAQADNNQLIPEKKMLNLADEVGKVFDFFEALAEDRGVELRFVGDKCQVAGDPLMLRRALSNLLSNALRYTPTGETIVVRCQTVDHLVQVIVENPGTPIAPEHLPRLFDRFYRVDPSRQRKGEGSGIGLAIVKSIVVAHKGTVAVTSDARGTRFVITLPA
Q: Does B3 bind [3]?
A: Result: binds

B4: CusScp-short, cytoplasmic domain of CusS (amino acids 208–480) with C-terminal 6xHis tag, wild-type (domain or fragment, E. coli)
chain: MASKGHAPIRSVSRQIQNITSKDLDVRLDPQTVPIELEQLVLSFNHMIERIEDVFTRQSNFSADIAHEIRTPITNLITQTEIALSQSRSQKELEDVLYSNLEELTRMAKMVSDMLFLAQADNNQLIPEKKMLNLADEVGKVFDFFEALAEDRGVELRFVGDKCQVAGDPLMLRRALSNLLSNALRYTPTGETIVVRCQTVDHLVQVIVENPGTPIAPEHLPRLFDRFYRVDPSRQRKGEGSGIGLAIVKSIVVAHKGTVAVTSDARGTRFVITLPALE
Q: Does B4 bind [3]?
A: Result: binds
